Laboratory results: doi:10.1101/379495v1

Substrate: O=[N+]([O-])c1ccc(O[C@@H]2O[C@@H](CO)[C@H](O)[C@H]2O)cc1
Assay: purified protein
Settings: general assay: sodium acetate buffer pH 5.5, 37 °C

B1: BLLJ_1852 (Bifidobacterium longum subsp. longum JCM 1217) (protein)
chain: DTVPTNNLIAAYDFTTKPSDGKTVANSAPNATLGAAEVQNSADSLWADDALTLSGGAKTGTGDWVKLPSNLLSGKDAATVQLEVKADSSMLNAFHFLWNIGNDSSDTEYFFATLNCGSSRNPLVGLKSGGTETLVQSSSCVAKADQWLSVTATIDGTAAKLYIDGTQVASGTVPAKLSSVKDQSLNTIGRSPWPDNLFKGAVSNFRVYDAALTADQVAAISTADASIHAGELTGSVLNGIIIPTTVDDPFISLPTANGVTWASSDSSVIATDGTVNQPAKGEAAKTVTLTAAVTVRGQTATKEFTVTVNPTTKTAAEQLKEVAAGYVIPSVVRSGDALPAAVNGTTVTVTSTKDVAVEDGKITIDGDEATTGTITVEFSKNGLAGIEPITKAFTVKVLPAAKSATIAAYDRNATGENEANNGDVAYSMHLALQNADGSYTPYNENYGIFFARSPKAQKLNENLDGNDYRSLKDPSLFRMADGTYGVISVRTNRGTATGDSTAKSSVLIATSEDLLTYSEQENSGSIVDLGETNGVNAPYAVYDTASKQYVVGWADDNGVAKYTTFDSLKGSTSKHGSVLYGSVAKSGVLAADGVQGIANFRSGATIAVDEATVKALNTRYGRSENTGTSNLTDITVKKGASIDEVTAQLPKNVDLTYSDGSTGSLPISSWNTEGIDLTKVGDYTVTGTVKQTEYQIPFAEDRADPSVYKWQWTHEADGKEVTETKFLMIASNDIQGDVTWQHGSPHMPFRMADTISGLADEPGNPNALIQSNGYNNKEVSLLKAGDKDSEGNAIMHSFWAPEIHEIDGRLTILFMAGYGNTWSNGKSVYMQLKQDADGHDLDPADPDNWTVPTPIYRNDASLLNGNKQLAATASGGVGMSLDMTYFQDADGRSYYAWQQLGATYIATMDPKDPAHVTSSPVRIVTPEYAWNAAIAEGPNVTLRDGKLYLMFSGSGVGKTYTTGLAVADASGTDLTDPASWTVLNYPIQKSGPFNGEMQLGTGHGMWSEDEDGNQIYVFHAYATKNLGSVNATGRDMFVRRVHWAADGMPVFDMSSSEELASKTVSVTVKVVDDTVTVDKTDLSKALASAKQLRESDYTAASWKAFAAALASAEKVYADENASQKDVDDATAALNKAQAALVKVDGSDSGDGSSDSTKPGDGSSIDAGATGDKTGNKLGLS
Km: 9.8 mM | kcat: 19.2 s⁻¹
